The target in the test is Cdk2/cyclin A complex (Cdk2 phosphorylated at threonine 160 with truncated cyclin A) (human) (UniProt P24941).

“peptide corresponding to the Cdk binding domain of p27” came in with an IC50 of inhibition of Cdk2/cyclin A kinase activity (data not shown; 25% residual kinase activity even at peptide concentrations as high as 17 µM) of 0.125 µM.

Source of the values: publication PMC3470550.
